{
  "source": "patent US20200270325A1",
  "about": "(Merck Sharp & Dohme, published 2020)",
  "binders": {"B1": {"name": "TP631 (peptide)", "peptide": "H[Aib]QGTFTSDYSKYLDARAAK([AEEA-AEEA-γGlu-C18 diacid])DFVQ[αMeW]L[Met(O2)]DT-NH2", "modifications": "N-terminus assumed", "SMILES": "CC(C)C[C@H](NC(=O)[C@H](Cc1ccc(O)cc1)NC(=O)[C@H](CCCCN)NC(=O)[C@H](CO)NC(=O)[C@H](Cc1ccc(O)cc1)NC(=O)[C@H](CC(=O)O)NC(=O)[C@H](CO)NC(=O)[C@@H](NC(=O)[C@H](Cc1ccccc1)NC(=O)[C@@H](NC(=O)CNC(=O)[C@H](CCC(N)=O)NC(=O)C(C)(C)NC(=O)[C@@H](N)Cc1c[nH]cn1)[C@@H](C)O)[C@@H](C)O)C(=O)N[C@@H](CC(=O)O)C(=O)N[C@@H](C)C(=O)N[C@@H](CCCNC(=N)N)C(=O)N[C@@H](C)C(=O)N[C@@H](C)C(=O)N[C@@H](CCCCNC(=O)COCCOCCNC(=O)COCCOCCNC(=O)CC[C@H](NC(=O)CCCCCCCCCCCCCCCCC(=O)O)C(=O)O)C(=O)N[C@@H](CC(=O)O)C(=O)N[C@@H](Cc1ccccc1)C(=O)N[C@H](C(=O)N[C@@H](CCC(N)=O)C(=O)N[C@@](C)(Cc1c[nH]c2ccccc12)C(=O)N[C@@H](CC(C)C)C(=O)N[C@@H](CCS(C)(=O)=O)C(=O)N[C@@H](CC(=O)O)C(=O)N[C@H](C(N)=O)[C@@H](C)O)C(C)C"}, "B2": {"name": "TP634 (peptide)", "peptide": "H[Aib]QGTFTSDYSKYLDARAAQ[Phe(4-CH2NH2)]([AEEA-AEEA-γGlu-C18 diacid])FVQWL[Met(O2)][αMeD]T-NH2", "modifications": "N-terminus assumed", "SMILES": "CC(C)C[C@H](NC(=O)[C@H](Cc1ccc(O)cc1)NC(=O)[C@H](CCCCN)NC(=O)[C@H](CO)NC(=O)[C@H](Cc1ccc(O)cc1)NC(=O)[C@H](CC(=O)O)NC(=O)[C@H](CO)NC(=O)[C@@H](NC(=O)[C@H](Cc1ccccc1)NC(=O)[C@@H](NC(=O)CNC(=O)[C@H](CCC(N)=O)NC(=O)C(C)(C)NC(=O)[C@@H](N)Cc1c[nH]cn1)[C@@H](C)O)[C@@H](C)O)C(=O)N[C@@H](CC(=O)O)C(=O)N[C@@H](C)C(=O)N[C@@H](CCCNC(=N)N)C(=O)N[C@@H](C)C(=O)N[C@@H](C)C(=O)N[C@@H](CCC(N)=O)C(=O)N[C@@H](Cc1ccc(CNC(=O)COCCOCCNC(=O)COCCOCCNC(=O)CC[C@H](NC(=O)CCCCCCCCCCCCCCCCC(=O)O)C(=O)O)cc1)C(=O)N[C@@H](Cc1ccccc1)C(=O)N[C@H](C(=O)N[C@@H](CCC(N)=O)C(=O)N[C@@H](Cc1c[nH]c2ccccc12)C(=O)N[C@@H](CC(C)C)C(=O)N[C@@H](CCS(C)(=O)=O)C(=O)N[C@@](C)(CC(=O)O)C(=O)N[C@H](C(N)=O)[C@@H](C)O)C(C)C"}, "B3": {"name": "TP632 (peptide)", "peptide": "H[Aib]QGTFTSDYSKYLDARAAKDFVQ[αMeW]L[Met(O2)][αMeD]T-NH2", "modifications": "not fully specified (residue 20); printed as HUQGTFTSDYSKYLDARAAK(PEG2PEG2γEC18-OH)DFVQαMWL2αMDT-NH2"}, "B4": {"name": "TP633 (peptide)", "peptide": "H[Aib]QGTFTSDYSKYLDARAAQ[Phe(4-CH2NH2)]([AEEA-γGlu-C18 diacid])FVQWLLDT-NH2", "modifications": "N-terminus assumed", "SMILES": "CC(C)C[C@H](NC(=O)[C@H](Cc1ccc(O)cc1)NC(=O)[C@H](CCCCN)NC(=O)[C@H](CO)NC(=O)[C@H](Cc1ccc(O)cc1)NC(=O)[C@H](CC(=O)O)NC(=O)[C@H](CO)NC(=O)[C@@H](NC(=O)[C@H](Cc1ccccc1)NC(=O)[C@@H](NC(=O)CNC(=O)[C@H](CCC(N)=O)NC(=O)C(C)(C)NC(=O)[C@@H](N)Cc1c[nH]cn1)[C@@H](C)O)[C@@H](C)O)C(=O)N[C@@H](CC(=O)O)C(=O)N[C@@H](C)C(=O)N[C@@H](CCCNC(=N)N)C(=O)N[C@@H](C)C(=O)N[C@@H](C)C(=O)N[C@@H](CCC(N)=O)C(=O)N[C@@H](Cc1ccc(CNC(=O)COCCOCCNC(=O)CC[C@H](NC(=O)CCCCCCCCCCCCCCCCC(=O)O)C(=O)O)cc1)C(=O)N[C@@H](Cc1ccccc1)C(=O)N[C@H](C(=O)N[C@@H](CCC(N)=O)C(=O)N[C@@H](Cc1c[nH]c2ccccc12)C(=O)N[C@@H](CC(C)C)C(=O)N[C@@H](CC(C)C)C(=O)N[C@@H](CC(=O)O)C(=O)N[C@H](C(N)=O)[C@@H](C)O)C(C)C"}, "B5": {"name": "TP635 (peptide)", "peptide": "H[Aib]QGTFTSDYSKYLDARAA[Phe(4-CH2NH2)]([AEEA-γGlu-C18 diacid])DFVQWLLDT-NH2", "modifications": "N-terminus assumed", "SMILES": "CC(C)C[C@H](NC(=O)[C@H](Cc1ccc(O)cc1)NC(=O)[C@H](CCCCN)NC(=O)[C@H](CO)NC(=O)[C@H](Cc1ccc(O)cc1)NC(=O)[C@H](CC(=O)O)NC(=O)[C@H](CO)NC(=O)[C@@H](NC(=O)[C@H](Cc1ccccc1)NC(=O)[C@@H](NC(=O)CNC(=O)[C@H](CCC(N)=O)NC(=O)C(C)(C)NC(=O)[C@@H](N)Cc1c[nH]cn1)[C@@H](C)O)[C@@H](C)O)C(=O)N[C@@H](CC(=O)O)C(=O)N[C@@H](C)C(=O)N[C@@H](CCCNC(=N)N)C(=O)N[C@@H](C)C(=O)N[C@@H](C)C(=O)N[C@@H](Cc1ccc(CNC(=O)COCCOCCNC(=O)CC[C@H](NC(=O)CCCCCCCCCCCCCCCCC(=O)O)C(=O)O)cc1)C(=O)N[C@@H](CC(=O)O)C(=O)N[C@@H](Cc1ccccc1)C(=O)N[C@H](C(=O)N[C@@H](CCC(N)=O)C(=O)N[C@@H](Cc1c[nH]c2ccccc12)C(=O)N[C@@H](CC(C)C)C(=O)N[C@@H](CC(C)C)C(=O)N[C@@H](CC(=O)O)C(=O)N[C@H](C(N)=O)[C@@H](C)O)C(C)C"}},
  "note": "Numbered stars: 1 amine (or outer) side, 2 acyl side, 3 side chain; on linkers, the order of the positions; unused ones are H or OH. Square brackets hold non-standard residues; d marks the D form. Side chains are listed from the residue outwards. Ends that are not written are not given here. * marks the point of attachment. Phe(4-CH2NH2) = NCc1ccc(C[C@H](N)C(=O)O)cc1; C18 diacid = O=C(O)CCCCCCCCCCCCCCCCC(=O)*; αMeW = C[C@](N)(Cc1c[nH]c2ccccc12)C(=O)O; γGlu = O=C(O)[C@H](CCC(=O)[*:2])N[*:1]; Met(O2) = CS(=O)(=O)CC[C@H](N)C(=O)O; αMeD = C[C@](N)(CC(=O)O)C(=O)O; αMeS = C[C@](N)(CO)C(=O)O; AEEA = NCCOCCOCC(=O)O; Aib = CC(C)(N)C(=O)O",
  "data": [
    {"biological_target": "human Glucagon receptor (GCGR) (human, UniProt P47871 26-477)", "sequence (P47871 26-477)": "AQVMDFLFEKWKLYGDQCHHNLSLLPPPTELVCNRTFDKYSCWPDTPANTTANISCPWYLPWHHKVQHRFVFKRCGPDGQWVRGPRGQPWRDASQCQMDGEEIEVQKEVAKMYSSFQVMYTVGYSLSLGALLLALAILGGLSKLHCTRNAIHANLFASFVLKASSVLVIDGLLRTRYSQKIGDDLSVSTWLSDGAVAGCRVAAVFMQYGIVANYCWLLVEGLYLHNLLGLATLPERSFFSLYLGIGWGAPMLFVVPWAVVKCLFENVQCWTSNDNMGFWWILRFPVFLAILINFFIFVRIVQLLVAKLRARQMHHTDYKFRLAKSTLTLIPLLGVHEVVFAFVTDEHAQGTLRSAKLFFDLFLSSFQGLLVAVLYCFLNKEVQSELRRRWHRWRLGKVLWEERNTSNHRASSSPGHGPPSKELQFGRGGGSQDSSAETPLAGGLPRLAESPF", "experiment": "cell-based or functional assay", "units": {"GCGR EC50 human": "nM"}, "values": [
      {"binder": "B1", "GCGR EC50 human": 1.65},
      {"binder": "B2", "GCGR EC50 human": 0.77},
      {"binder": "B3", "GCGR EC50 human": 5.9},
      {"binder": "B4", "GCGR EC50 human": 0.12},
      {"binder": "B5", "GCGR EC50 human": 0.46},
      {"binder": "H[dS]QGTFTSDYSKYLD[Aib]RAAK([AEEA-AEEA-γGlu-C20‑OH])DFVQWL[Met(O2)]DT-NH2", "note": "[TP578]", "GCGR EC50 human": 0.604},
      {"binder": "H[Aib]QGTFTSDYSKYLDARAAK([AEEA-AEEA-γGlu-C20‑OH])DFVQWL[Met(O2)][αMeD]T-NH2", "note": "[TP565]", "GCGR EC50 human": 5.42}
    ]},
    {"biological_target": "human GLP-1 receptor (GLP1R) (human, UniProt P43220 24-463)", "experiment": "cell-based or functional assay", "units": {"GLP1R EC50 human": "nM"}, "values": [
      {"binder": "B1", "GLP1R EC50 human": 1.32},
      {"binder": "H[αMeS]QGTFTSDYSKYLD[Aib]RAAK([AEEA-AEEA-γGlu-C20‑OH])DFVQWL[Met(O2)]DT-NH2", "note": "[TP593]", "GLP1R EC50 human": 4.95},
      {"binder": "B2", "GLP1R EC50 human": 0.49},
      {"binder": "B3", "GLP1R EC50 human": 6.6},
      {"binder": "H[αMeS]QGTFTSDYSKYLD[Aib]RAAK([AEEA-AEEA-γGlu-C20‑OH])DFVQWL[Met(O2)]DT-NH2", "note": "[TP592]", "GLP1R EC50 human": 2.42},
      {"binder": "B4", "GLP1R EC50 human": 0.19},
      {"binder": "B5", "GLP1R EC50 human": 2.13},
      {"binder": "H[dS]QGTFTSDYSKYLD[Aib]RAAK([AEEA-AEEA-γGlu-C20‑OH])DFVQWL[Met(O2)]DT-NH2", "note": "[TP578]", "GLP1R EC50 human": 4.95},
      {"binder": "H[Aib]QGTFTSDYSKYLDARAAK([AEEA-AEEA-γGlu-C20‑OH])DFVQWL[Met(O2)][αMeD]T-NH2", "note": "[TP565]", "GLP1R EC50 human": 2.26}
    ]}
  ]
}
